Starred links: 1 amine or outer side, 2 acyl side, 3 side chain; linkers in the order of their positions; H or OH if unused. Positions of bridges follow the written chain, without caps; N, C: chain ends. Non-standard residues stand in square brackets, D forms with d. Primed or numbered codes have the meaning given here. PyrS2″ = (S)-3-amino-1-((pent-4-en-1-yloxy)carbonyl)pyrrolidine-3-carboxylic acid (stapling residue), C=CCCCOC(=O)N1CC[C@@](N[*:1])(C(=O)[*:2])C1; B5(24) = 2-amino-2-(pent-4-en-1-yl)hept-6-enoic acid, 2,2-bis(4-pentenyl)glycine (stitching residue), C=CCCCC(CCCC=C)(N[*:1])C(=O)[*:2]; B5(4) = 2,2-bis(4-pentenyl)glycine = 2-amino-2-(pent-4-en-1-yl)hept-6-enoic acid (stitching residue), C=CCCCC(CCCC=C)(N[*:1])C(=O)[*:2]; B5(3) = 2,2-bis(4-pentenyl)glycine (stitching residue), C=CCCCC(CCCC=C)(N[*:1])C(=O)[*:2]; Phe(3-CF3) = N[C@@H](Cc1cccc(C(F)(F)F)c1)C(=O)O; Phe(4-CF3) = N[C@@H](Cc1ccc(C(F)(F)F)cc1)C(=O)O; Ala(morpholin-4-yl) = N[C@@H](CN1CCOCC1)C(=O)O; Phe(3-OMe) = COc1cccc(C[C@H](N)C(=O)O)c1; Phe(2-Cl) = N[C@@H](Cc1ccccc1Cl)C(=O)O; 1Nal = N[C@@H](Cc1cccc2ccccc12)C(=O)O; 2Nal = N[C@@H](Cc1ccc2ccccc2c1)C(=O)O; Bta = N[C@@H](Cc1csc2ccccc12)C(=O)O; Lys(iPr) = CC(C)NCCCC[C@H](N)C(=O)O; αAllylPro = C=CC[C@@]1(C(=O)O)CCCN1; tBuAla = CC(C)(C)C[C@H](N)C(=O)O; Cha = N[C@@H](CC1CCCCC1)C(=O)O

For the first test, the target named is full-length beta-Catenin (Uniprot ID P35222) (Homo sapiens (Human)) (UniProt P35222). The test can be described thus: fluorescence polarization competition, 5FAM-TCF4 10-53 probe on full-length beta-catenin.
Target sequence in this assay (P35222 2-781 limits assumed): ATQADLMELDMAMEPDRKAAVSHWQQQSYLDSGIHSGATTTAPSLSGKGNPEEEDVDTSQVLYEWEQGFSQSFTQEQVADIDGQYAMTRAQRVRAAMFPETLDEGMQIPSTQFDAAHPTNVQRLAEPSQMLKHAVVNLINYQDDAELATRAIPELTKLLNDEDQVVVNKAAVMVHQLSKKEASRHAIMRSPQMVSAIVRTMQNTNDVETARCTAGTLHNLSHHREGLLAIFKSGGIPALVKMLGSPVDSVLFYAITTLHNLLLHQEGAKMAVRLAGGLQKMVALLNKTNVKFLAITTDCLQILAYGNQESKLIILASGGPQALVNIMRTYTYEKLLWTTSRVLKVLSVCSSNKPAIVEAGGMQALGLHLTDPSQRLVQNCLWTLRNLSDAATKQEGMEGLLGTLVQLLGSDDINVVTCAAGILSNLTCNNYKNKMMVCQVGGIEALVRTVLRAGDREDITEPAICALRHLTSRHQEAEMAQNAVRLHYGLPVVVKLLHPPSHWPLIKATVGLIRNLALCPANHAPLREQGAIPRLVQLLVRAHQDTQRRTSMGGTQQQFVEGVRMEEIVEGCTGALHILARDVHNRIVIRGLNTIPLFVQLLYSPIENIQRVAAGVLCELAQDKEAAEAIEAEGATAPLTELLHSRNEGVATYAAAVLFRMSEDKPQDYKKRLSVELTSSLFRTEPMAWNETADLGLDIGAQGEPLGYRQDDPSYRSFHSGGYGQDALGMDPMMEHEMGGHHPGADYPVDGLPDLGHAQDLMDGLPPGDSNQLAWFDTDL
Take Ac-[αAllylPro]D[Cha][B5(3)]DDAAFS[PyrS2″][Phe(2-Cl)][Bta]Q-NH2 (staple 1-4, 4-11 (inferred); not fully specified (residue 9); printed as Ac-PL3-Asp-Cha-B5-Asp-Asp-Ala-Ala-4F3MeF-Ser-PyrS2-2C1F-BztA-Gln-NH2) [I-1120]: the half-maximal effective concentration (EC50) was found to be 85 nM.
Molecule Ac-[αAllylPro]D[2Nal][B5(4)]DDAAFL[PyrS2″][Phe(2-Cl)][Bta]S-NH2 (staple 1-4, 4-11) [I-1117] registered a concentration giving a half-maximal response (EC50) of 55 nM.
The molecule Ac-[αAllylPro]D[Cha][B5(3)]DDAA[Phe(3-CF3)]S[PyrS2″]F[Bta]Q-NH2 (staple 1-4, 4-11 (inferred)) [I-1125] came in with an EC50 of 16 nM.
In the case of Ac-[αAllylPro]D[tBuAla][B5(4)]DDAAFN[PyrS2″][Phe(2-Cl)][Bta][Ala(morpholin-4-yl)]-NH2 (staple 1-4, 4-11; also: later eluting staple isomer) [I-1134], the half-maximal effective concentration (EC50) is 6 nM. This EC50 is about 2.7-fold lower than that of the molecule before.
In the case of Ac-[αAllylPro]D[Cha][B5(3)]DDAA[Phe(3-OMe)]S[PyrS2″]F[Bta]Q-NH2 (staple 1-4, 4-11 (inferred)) [I-1124], the concentration for a half-maximal effect (EC50) was found to be 12 nM. Compared with the last molecule, the EC50 is about 2-fold higher.
Ac-[αAllylPro]D[tBuAla][B5(4)]DDAAFN[PyrS2″][Phe(2-Cl)][Bta][Ala(morpholin-4-yl)]-NH2 (staple 1-4, 4-11; also: earlier eluting staple isomer) [I-1133] had an EC50 of 5 nM.
On the same count and under the same terms, for Ac-[αAllylPro]D[tBuAla][B5(24)]DD[Lys(iPr)]AFN[PyrS2″][Phe(2-Cl)][Bta]Q-NH2 (staple 1-4, 4-11) [I-1131] the value was 7 nM.
As for Ac-[αAllylPro]D[Cha][B5(3)]DDAA[Phe(3-CF3)]S[PyrS2″][Phe(2-Cl)][Bta]Q-NH2 (staple 1-4, 4-11 (inferred)) [I-1119], the half-maximal effective concentration (EC50) came to 26 nM. This EC50 is about 3.7-fold higher than that of the molecule before.
In the case of Ac-[αAllylPro]D[Cha][B5(3)]DDAAFS[PyrS2″]F[Bta]Q-NH2 (staple 1-4, 4-11 (inferred); not fully specified (residue 9); printed as Ac-PL3-Asp-Cha-B5-Asp-Asp-Ala-Ala-4F3MeF-Ser-PyrS2-Phe-BztA-Gln-NH2) [I-1126], the 50% effective concentration (EC50) stood at 32 nM.
As for Ac-[αAllylPro]D[Cha][B5(3)]DDAA[Phe(3-OMe)]S[PyrS2″][Phe(2-Cl)][Bta]Q-NH2 (staple 1-4, 4-11 (inferred)) [I-1118], the EC50 is 24 nM.
Ac-[αAllylPro]D[tBuAla][B5(24)]DDA[Lys(iPr)]FN[PyrS2″][Phe(2-Cl)][Bta]Q-NH2 (staple 1-4, 4-11) [I-1132]: the concentration giving a half-maximal response (EC50) is 21 nM.
Turning to Ac-[αAllylPro]D[Cha][B5(4)]DDAAFS[PyrS2″][Phe(2-Cl)][Bta]T-NH2 (staple 1-4, 4-11) [I-1135], the 50% effective concentration (EC50) was 20 nM.
For the molecule Ac-[αAllylPro]D[tBuAla][B5(24)]DDAAFN[PyrS2″][Phe(2-Cl)][Bta][Lys(iPr)]-NH2 (staple 1-4, 4-11) [I-1130], the concentration for a half-maximal effect (EC50) worked out at 6 nM. Against the preceding molecule, the EC50 is about 3.3-fold lower.
The molecule Ac-[αAllylPro]D[Cha][B5(24)]DDAAFS[PyrS2″][Phe(2-Cl)][Bta][dT]-NH2 (staple 1-4, 4-11) [I-1136] gave an EC50 of 16 nM. Against the preceding molecule, the EC50 is about 2.7-fold higher.
For the molecule Ac-[αAllylPro]D[1Nal][B5(4)]DDAAFL[PyrS2″][Phe(2-Cl)][Bta]S-NH2 (staple 1-4, 4-11) [I-1116], the EC50 was found to be 40 nM.

A further test has the same target. The test can be described thus: fluorescence polarization competition, full-length beta-catenin, competitor 5FAM-TCF4 10-53. Background: Polarisation of emitted light reports the rotation of a fluorescent probe.
Target sequence in this assay (P35222 whole entry): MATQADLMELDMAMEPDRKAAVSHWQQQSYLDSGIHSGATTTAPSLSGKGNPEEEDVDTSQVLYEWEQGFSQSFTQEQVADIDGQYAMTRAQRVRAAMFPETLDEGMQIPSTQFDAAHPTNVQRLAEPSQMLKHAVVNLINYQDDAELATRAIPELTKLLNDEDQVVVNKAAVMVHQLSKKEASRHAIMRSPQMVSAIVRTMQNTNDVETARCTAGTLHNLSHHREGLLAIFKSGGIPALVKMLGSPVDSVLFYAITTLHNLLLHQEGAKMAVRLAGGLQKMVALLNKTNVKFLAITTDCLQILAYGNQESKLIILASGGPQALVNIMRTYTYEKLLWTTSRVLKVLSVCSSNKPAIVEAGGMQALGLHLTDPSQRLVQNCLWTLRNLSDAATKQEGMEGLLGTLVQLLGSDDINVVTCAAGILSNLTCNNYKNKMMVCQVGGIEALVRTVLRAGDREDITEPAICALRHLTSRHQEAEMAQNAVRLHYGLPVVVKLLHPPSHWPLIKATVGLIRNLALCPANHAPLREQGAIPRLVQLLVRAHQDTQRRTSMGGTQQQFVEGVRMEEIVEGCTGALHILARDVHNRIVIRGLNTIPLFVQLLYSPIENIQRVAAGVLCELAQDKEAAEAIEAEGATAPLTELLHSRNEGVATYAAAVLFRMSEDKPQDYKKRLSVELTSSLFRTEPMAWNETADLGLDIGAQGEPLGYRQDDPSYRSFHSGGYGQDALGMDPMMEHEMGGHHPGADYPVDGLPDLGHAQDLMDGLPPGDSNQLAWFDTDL
For Ac-[αAllylPro]D[Cha][B5(3)]DDAAFS[PyrS2″][Phe(2-Cl)][Bta]Q-NH2 (staple 1-4, 4-11 (inferred); not fully specified (residue 9); printed as Ac-PL3-Asp-Cha-B5-Asp-Asp-Ala-Ala-4F3MeF-Ser-PyrS2-2C1F-BztA-Gln-NH2) [I-1120], the half-inhibitory concentration (IC50) is 85 nM.
On the same count and under the same terms, for Ac-[αAllylPro]D[2Nal][B5(4)]DDAAFL[PyrS2″][Phe(2-Cl)][Bta]S-NH2 (staple 1-4, 4-11) [I-1117] the value was 55 nM; for Ac-[αAllylPro]D[Cha][B5(3)]DDAA[Phe(3-CF3)]S[PyrS2″]F[Bta]Q-NH2 (staple 1-4, 4-11 (inferred)) [I-1125], 16 nM.
With Ac-[αAllylPro]D[tBuAla][B5(4)]DDAAFN[PyrS2″][Phe(2-Cl)][Bta][Ala(morpholin-4-yl)]-NH2 (staple 1-4, 4-11; also: later eluting staple isomer) [I-1134], the IC50 amounted to 6 nM.
Ac-[αAllylPro]D[Cha][B5(3)]DDAA[Phe(3-OMe)]S[PyrS2″]F[Bta]Q-NH2 (staple 1-4, 4-11 (inferred)) [I-1124] displayed an IC50 of 12 nM.
Still for that read-out and setting: for Ac-[αAllylPro]D[tBuAla][B5(4)]DDAAFN[PyrS2″][Phe(2-Cl)][Bta][Ala(morpholin-4-yl)]-NH2 (staple 1-4, 4-11; also: earlier eluting staple isomer) [I-1133] the value was 5 nM; for Ac-[αAllylPro]D[tBuAla][B5(24)]DD[Lys(iPr)]AFN[PyrS2″][Phe(2-Cl)][Bta]Q-NH2 (staple 1-4, 4-11) [I-1131], 7 nM.
As for Ac-[αAllylPro]D[Cha][B5(3)]DDAA[Phe(3-CF3)]S[PyrS2″][Phe(2-Cl)][Bta]Q-NH2 (staple 1-4, 4-11 (inferred)) [I-1119], the IC50 is 26 nM.
As to Ac-[αAllylPro]D[Cha][B5(3)]DDAAFS[PyrS2″]F[Bta]Q-NH2 (staple 1-4, 4-11 (inferred); not fully specified (residue 9); printed as Ac-PL3-Asp-Cha-B5-Asp-Asp-Ala-Ala-4F3MeF-Ser-PyrS2-Phe-BztA-Gln-NH2) [I-1126], the IC50 is 32 nM. This IC50 and that of the molecule before are within 1.5-fold of each other.
With Ac-[αAllylPro]D[Cha][B5(3)]DDAA[Phe(3-OMe)]S[PyrS2″][Phe(2-Cl)][Bta]Q-NH2 (staple 1-4, 4-11 (inferred)) [I-1118], the IC50 was 24 nM.
Ac-[αAllylPro]D[tBuAla][B5(24)]DDA[Lys(iPr)]FN[PyrS2″][Phe(2-Cl)][Bta]Q-NH2 (staple 1-4, 4-11) [I-1132] came in with an IC50 of 21 nM.
For the molecule Ac-[αAllylPro]D[Cha][B5(4)]DDAAFS[PyrS2″][Phe(2-Cl)][Bta]T-NH2 (staple 1-4, 4-11) [I-1135], the IC50 amounted to 20 nM.
Turning to Ac-[αAllylPro]D[tBuAla][B5(24)]DDAAFN[PyrS2″][Phe(2-Cl)][Bta][Lys(iPr)]-NH2 (staple 1-4, 4-11) [I-1130], the IC50 turned out to be 6 nM.
On to Ac-[αAllylPro]D[Cha][B5(24)]DDAAFS[PyrS2″][Phe(2-Cl)][Bta][dT]-NH2 (staple 1-4, 4-11) [I-1136], for which the IC50 was 16 nM.
Regarding Ac-[αAllylPro]D[1Nal][B5(4)]DDAAFL[PyrS2″][Phe(2-Cl)][Bta]S-NH2 (staple 1-4, 4-11) [I-1116], the half-maximal inhibitory concentration (IC50) worked out at 40 nM.

As a reminder, the EC50 is the concentration needed to bring the measured effect to its halfway point. Lower therefore signals an effect from little substance. Broadly, the IC50 is the midpoint of a concentration-inhibition curve. A low value points to greater potency in that assay.

For the origin of these results see patent US20240116985A1, “STAPLED PEPTIDES AND METHODS THEREOF” (priority 2020, published 2024).
